According to paper PMC4117778:

Molecular target: human DNA polymerase beta (polβ) (Homo sapiens, UniProt P06746 1-335)
Assay: X-ray crystallography; gapped binary complex, no incoming nucleotide; open conformation; 2.4 Å; Crystallization conditions not in material; kinetics (turnover only, not listed): 50 mM Tris-HCl pH 7.5, 5 mM MgCl2, 100 mM KCl, 80 nM DNA, 37°C

B1: single-nucleotide gapped DNA with templating Fm7dG (crystal) (dsDNA)
DNA 1: CCGACGTCGCATCAGC
DNA 2: GCTGATGCGA
DNA 3: GTCGG
modifications: template G6 = 2'-fluoro-N7-methyl-2'-deoxyguanosine (Fm7dG); 5'-phosphate on downstream primer GTCGG
binding result: binds
